The chains are these.
B1: VDR (parent)
chain: VTLELSQLSMLPHLADLVSYSIQK
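Further: lentivirally expressed fusions sorted by FACS into six bins by GFP to DsRed ratio, PSI derived from sequencing read proportions per bin multiplied by bin number.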

Variants of B1 are the subject of this data set. The data set is described as follows: protein stability index of a GFP-peptide fusion (GPS, HEK-293T) (PSI 1-6); higher = more stable. To be noted: c terminus: a fixed tail appended.
Take VPLELSQLSMLPHLADLVSYSIQK [T2P]: the protein stability index was found to be 1.42.
Take VVLELSQLSMLPHLADLVSYSIQK [T2V]: the protein stability index was 3.63.
For VQLELSQLSMLPHLADLVSYSIQK [T2Q], the protein stability index is 2.22.
Consider FTLELSQLSMLPHLADLVSYSIQK [V1F], for which the protein stability index stood at 2.61.
PTLELSQLSMLPHLADLVSYSIQK [V1P]: the protein stability index worked out at 1.58.
With LTLELSQLSMLPHLADLVSYSIQK [V1L], the protein stability index is 4.07.
As to VTLELSQLPMLPHLADLVSYSIQK [S9P], the protein stability index turned out to be 1.97.
For VTLELSQLIMLPHLADLVSYSIQK [S9I], the protein stability index came out at 3.23.
Turning to VTLELSQLRMLPHLADLVSYSIQK [S9R], the protein stability index came to 3.06.
In the case of VTLELSQLKMLPHLADLVSYSIQK [S9K], the protein stability index worked out at 3.79.
In the case of VTLELSQLGMLPHLADLVSYSIQK [S9G], the protein stability index came out at 3.56.
VTLTLSQLSMLPHLADLVSYSIQK [E4T]: the protein stability index came to 2.67.
For the variant VTLLLSQLSMLPHLADLVSYSIQK [E4L], the protein stability index was 4.64.
As to VTLQLSQLSMLPHLADLVSYSIQK [E4Q], the protein stability index is 3.55.
VTLKLSQLSMLPHLADLVSYSIQK [E4K]: the protein stability index is 3.75.
With VTLGLSQLSMLPHLADLVSYSIQK [E4G], the protein stability index amounted to 2.6.
Take VTLHLSQLSMLPHLADLVSYSIQK [E4H]: the protein stability index turned out to be 2.02.
VTLYLSQLSMLPHLADLVSYSIQK [E4Y]: the protein stability index was determined as 2.58.
In the case of VTLELSQLSMLPHLADLVSYSIQT [K24T], the protein stability index is 3.5.
VTLELSQLSMLPHLADLVSYSIQL [K24L]: the protein stability index was found to be 1.86.
As to VTLELSQLSMLPHLADLVSYSIQI [K24I], the protein stability index came to 4.63.
Regarding VTLELSQLSMLPHLADLVSYSIQR [K24R], the protein stability index is 3.01.
On to VTLELSQLSMLPHLADLVSYSIQM [K24M], for which the protein stability index worked out at 3.28.
Next, VTLELSQLSMLPHLADLVSYSICK [Q23C]: 2.33; VTLELSQLSMLPHLADLVSYSIHK [Q23H]: 5.2.
Consider VTLELSQLSMLPHLADLVSYSIYK [Q23Y], for which the protein stability index was 1.97.
For the variant VTLELSQLSMLPHLADLVSYSIVK [Q23V], the protein stability index stood at 2.59.
The result for VTLELSQLSMLPHLADLVSYSIIK [Q23I] reads 2.56; that for VTVELSQLSMLPHLADLVSYSIQK [L3V], 2.45; that for VTCELSQLSMLPHLADLVSYSIQK [L3C], 1.99.
Regarding VTTELSQLSMLPHLADLVSYSIQK [L3T], the protein stability index was 1.97.
With VTAELSQLSMLPHLADLVSYSIQK [L3A], the protein stability index came to 2.21.
In the case of VTPELSQLSMLPHLADLVSYSIQK [L3P], the protein stability index turned out to be 2.49.
With VTLELSQLSMLPHLADLVSYSNQK [I22N], the protein stability index worked out at 2.32.
On to VTLELSQLSMLPHLADLVSYSTQK [I22T], for which the protein stability index came out at 1.87.
Next, VTLELSQLSMLPHLADLVSYSFQK [I22F]: 2.12; VTLELSQLSMLPHLADLVSYSSQK [I22S]: 1.79.
The result for VTLELSQLSMLPILADLVSYSIQK [H13I] reads 3.46.
Next, VTLELSQLSMLPYLADLVSYSIQK [H13Y]: 2.58; VTLELSQLSMLPGLADLVSYSIQK [H13G]: 2.52.
In the case of VTLELSQLSMLPDLADLVSYSIQK [H13D], the protein stability index came out at 2.87.
On to VTLELSQLSMLPRLADLVSYSIQK [H13R], for which the protein stability index came out at 2.16.
As for VTLELSQLSMLPFLADLVSYSIQK [H13F], the protein stability index came to 2.48.
Next, VTLELSQLSMLPKLADLVSYSIQK [H13K]: 2.92; VTLELSQLSMLPSLADLVSYSIQK [H13S]: 2.57.
As to VTLELSQLSMLPHLADLVSYWIQK [S21W], the protein stability index was 3.16.
On to VTLELSQLSMLPHLADLVSYMIQK [S21M], for which the protein stability index came to 1.43.
Turning to VTLELSQLSMLPHLADLVSYHIQK [S21H], the protein stability index was 2.5.
With VTLELSQLSMLPHLADLVSYGIQK [S21G], the protein stability index worked out at 2.48.
The result for VTLELSQLSMLPHLADLASYSIQK [V18A] reads 3.69.
Consider VTLELSQLSMLPHLADLNSYSIQK [V18N], for which the protein stability index was 1.8.
Consider VTLELSQLSMLPHLADLKSYSIQK [V18K], for which the protein stability index was 2.69.
As to VTLELSQLSMLPHLADLSSYSIQK [V18S], the protein stability index amounted to 2.94.
For the variant VTLELSQLSMLPHLADLDSYSIQK [V18D], the protein stability index is 2.24.
For the variant VTLELSQLSMLPHLADLYSYSIQK [V18Y], the protein stability index worked out at 3.48.
As for VTLELSNLSMLPHLADLVSYSIQK [Q7N], the protein stability index was 2.84.
As for VTLELSYLSMLPHLADLVSYSIQK [Q7Y], the protein stability index was 2.81.
Take VTLELSWLSMLPHLADLVSYSIQK [Q7W]: the protein stability index worked out at 2.56.
As for VTLELSALSMLPHLADLVSYSIQK [Q7A], the protein stability index stood at 3.54.
For VTLELSQLSMLPHLADPVSYSIQK [L17P], the protein stability index was 2.77.
Next, VTLELSQLSMLPHLADVVSYSIQK [L17V]: 1.66.
Regarding VTLELSQLSMLPHLADMVSYSIQK [L17M], the protein stability index was found to be 2.75.
VTLELSQLSMLPHLADWVSYSIQK [L17W]: the protein stability index amounted to 3.14.
Regarding VTLELSQLSMLPHLADNVSYSIQK [L17N], the protein stability index turned out to be 1.77.
Consider VTLELSQLSMLPHLADEVSYSIQK [L17E], for which the protein stability index came to 1.87.
VTLELEQLSMLPHLADLVSYSIQK [S6E]: the protein stability index is 2.77.
With VTLELFQLSMLPHLADLVSYSIQK [S6F], the protein stability index was determined as 2.88.
The result for VTLELAQLSMLPHLADLVSYSIQK [S6A] reads 2.88.
As for VTLELCQLSMLPHLADLVSYSIQK [S6C], the protein stability index was determined as 2.65.
Take VTLELSQLSGLPHLADLVSYSIQK [M10G]: the protein stability index stood at 2.09.
Next, VTLELSQLSQLPHLADLVSYSIQK [M10Q]: 2.65; VTLELSQLSELPHLADLVSYSIQK [M10E]: 1.87; VTLELSQLSDLPHLADLVSYSIQK [M10D]: 1.71.
With VTLELSQLSILPHLADLVSYSIQK [M10I], the protein stability index was determined as 2.35.
With VTLELSQLSNLPHLADLVSYSIQK [M10N], the protein stability index was 2.14.
Next, VTLELSQLSCLPHLADLVSYSIQK [M10C]: 3.52.
For the variant VTLELSQLSYLPHLADLVSYSIQK [M10Y], the protein stability index came out at 2.33.
Next, VTLELSQLSHLPHLADLVSYSIQK [M10H]: 2.76.
Consider VTLELSQLSTLPHLADLVSYSIQK [M10T], for which the protein stability index was determined as 2.87.
On to VTLELSQLSMDPHLADLVSYSIQK [L11D], for which the protein stability index was determined as 1.23.
Consider VTLELSQLSMPPHLADLVSYSIQK [L11P], for which the protein stability index turned out to be 3.08.
VTLELSQLSMYPHLADLVSYSIQK [L11Y]: the protein stability index was 3.22.
With VTLELSQLSMTPHLADLVSYSIQK [L11T], the protein stability index was 2.73.
As to VTLELSQLSMQPHLADLVSYSIQK [L11Q], the protein stability index stood at 2.42.
Take VTLELSQLSMGPHLADLVSYSIQK [L11G]: the protein stability index stood at 1.55.
Next, VTLELSQLSMVPHLADLVSYSIQK [L11V]: 2.06; VTLELSQLSMLPHLYDLVSYSIQK [A15Y]: 4.33.
The result for VTLELSQLSMLPHLTDLVSYSIQK [A15T] reads 2.83.
For VTLELSQLSMLPHLWDLVSYSIQK [A15W], the protein stability index amounted to 2.67.
As to VTLELSQLSMLPHLMDLVSYSIQK [A15M], the protein stability index amounted to 2.78.
For the variant VTLELSQLSMLPHLGDLVSYSIQK [A15G], the protein stability index amounted to 2.59.
Take VTLELSQLSMLPHLIDLVSYSIQK [A15I]: the protein stability index was 3.26.
Consider VTLELSQLSMLPHLDDLVSYSIQK [A15D], for which the protein stability index was found to be 3.12.
VTLELSQLSMLPHLPDLVSYSIQK [A15P]: the protein stability index worked out at 2.1.

For the origin of these results see the supplement of paper PMC10567573.
